Reference: the supplement of paper PMC9170038

System: K4 kissing-loop RNA reporter
Assay: apparent KD of K4 kissing-loop reporter; higher = weaker reporter binding
Conditions: Eterna round: R107
Description: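 RNA-MaP round R107: designed RNA switches with theophylline, tryptophan, arginine or FMN aptamers are transcribed on-chip within common flanks. They are titrated with a labelled K4 kissing-loop RNA reporter in RNA-MaP buffer (100 mM Tris pH 7.5, 80 mM KCl, 4 mM MgCl2), without ligand or with the indicated ligand. Median apparent KD per design.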

[1] = input ligand: theophylline 20 uM
[2] = input ligand: tryptophan 2.4 mM
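Further: bound reporter read as fluorescence of individual clusters on recovered sequencing chips by microscopy, with normalized cluster intensities fitted with a binding model.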

Sequence | apparent KD of K4 kissing-loop reporter (input ligand: FMN 200 uM) [µM] | apparent KD of K4 kissing-loop reporter (input ligand: arginine 13.2 mM) [µM] | apparent KD of K4 kissing-loop reporter (input ligand: none) [µM] | apparent KD of K4 kissing-loop reporter [1] [µM] | apparent KD of K4 kissing-loop reporter [2] [µM]
AUUCUAUUGUGAAGGAGCGCGUAUAGUAGUGAUGUUACUAUAAUAAUAGAUAUUUAAUUCUCGCAGGUAGGUCGCACAAUAUAUA [JR_Nu_ExcArginiB_Sub025] | 0.102 | 0.0826 | 0.0963 | 0.0856 | 0.092
AUUCUGUUUUUGAUGUUUUUUGUAUAAUGGCAGGAUAUCGUAGAAGCGAGAAGGGCUUUUAUGCGUUAUGAGUGAUGUUUGUAGG [ttytewvmullin] | 0.298 | 0.222 | 0.271 | 0.275 | 0.227
AUUGUACAAGUGAUGUUUGUUUUUUCCGAAGGAGCGUCUAAUAAGACAGGUAGGUCGCGGAUUCUCUUAAUAAUCAGGUCAUUAA [JR_Nu_ExcArginiA_Sub020] | 0.364 | 0.275 | 0.305 | 0.281 | 0.221
AUUUAAUGUAUAGAUUAUAUACAUAAUUCAGAGGAUAUGCAUAGAAGCAGAAGGCUGGUUGCAGUGAUGUUGCUUUUUUAAUUUA [JR_SSFMNA_Sub008] | 0.0309 | 0.125 | 0.0767 | 0.185 | 0.0638
AUUUAGACGAGUGAUGUUCGUGUUAUUACAGAGGAUAUGCGUAAUUGCAGAAGGCUGUAUUUAUAUAUGUUAUGUAGUUUUAAAA [whbob_Ex_FMNA__2th184] | 0.0873 | 0.108 | 0.0848 | 0.0948 | 0.0741
AUUUGUUUAUGCGAUACCAGACUAAGCAGUGAUGUUGCUUUUAUUUUUGAAUUUUAAAUAGUCCCUUGGCAGCGCUAUGUCUGUA [#06 K4 Theophylline B Same State] | 0.127 | 0.2 | 0.183 | 0.217 | 0.119
AUUUGUUUAUGUGAUACCAGACUUUGCAGUGAUGUUGCAUUUAUUUUAGAAUAUAAUUUAGUCCCUUGGCAGCACUAUGUAUUUA [JR_SSTheophyB_Sub008] | 0.0671 | 0.11 | 0.0738 | 0.109 | 0.0634
AUUUUAUUAACUGAUACCAGACUUAAUGAAUUGUAAAUUACUAGUGAUGUUAGUGAUUCUGUCCCUUGGCAGCAGUAUUUAUUAA [JR_ExcTheophyB_Sub012] | 0.129 | 0.146 | 0.139 | 0.141 | 0.118
AUUUUGGUUUAGAGUGAUGUUCCUUGUAUUCGAGGACCGGUACGGCCGCCACUCGAAUAGAAAAGAAAAGAAAUGUUUGAUUUUU [BDazzled - #7 SS Tryptophan A] | 0.406 | 0.211 | 0.556 | 0.351 | 0.361
AUUUUUUUGUCAGGAUAUUAGUAUGCGUUUGGUUUGUUAGUGAUGUUGAUAUUUUGUUUAUGUAUUUAAGAAGGGAUUUAGCGGU [yyitemullin] | 0.497 | 0.348 | 0.511 | 0.497 | 0.359
AUUUUUUUGUCAGGAUAUUAGUGUGCGUUUGGUUUGUUAGUGAUGUUGAUAUUUUGUUUAUGUAUUUAAGAAGGGAUUUAGCGGU [aaeatemullin] | 0.534 | 0.436 | 0.501 | 0.504 | 0.349
AUUUUUUUGUCAGGAUAUUAGUGUUGGUUUGGUUUGUUAGUGAUGUUGAUAUUUGUUUUAUGUAUUUAAGAAGGGAUUUAGCGGU [wxooemullin] | 0.42 | 0.379 | 0.364 | 0.458 | 0.293
CAAACUCUGACGGCCGCCACUAAUCGUGUAACAGUGAUGUUGUUACAUCAAAGAUGGGUUGCGUGUAGGACCGGGUCGACGCAAA [theeternabot_exclusion_KL_Trp_B_48] | 0.131 | 0.12 | 0.12 | 0.111 | 0.124
CAAAUAUGCGGUAGGUUCAAGCGCUGGGAAGGAGCGCAGAUGACUGCAGGUAGGUCGCCCAGUGAUGUUGGGCUUUCCACCUAUU [Edbeaan] | 0.123 | 0.124 | 0.132 | 0.146 | 0.121
CAAUGAGUAUAAGAUGAUAUCAUCACAGAAGGAGCGAGUGAUAACUCAGGUAGGUCGCUGAAUUUAUCGAGUGAUGUUCGAUAGA [whbob_SS_Arginine_A_sa118] | 0.207 | 0.158 | 0.199 | 0.175 | 0.17
CACCAUGAAUUCUCUAGGAGUGAUGUUUUUCGAGGACCGGUACGGCCGCCACUCGGACCAGGAACGUGGGAGCGGCGAAAAGACU [ttmullin] | 0.656 | 0.438 | 0.688 | 0.494 | 0.373
CACCGCAACUGAAGGAGCGCGCCAGUGAUGUUGGACGGCUUUGUCAAGGAAACUGCACCGGUGCAGGUAGGUCGCAGUUCGCGGC [Ededisa] | 0.319 | 0.256 | 0.366 | 0.278 | 0.259

Sequence | apparent KD of K4 kissing-loop reporter (input ligand: FMN 200 uM) [µM] | apparent KD of K4 kissing-loop reporter (input ligand: arginine 13.2 mM) [µM] | apparent KD of K4 kissing-loop reporter (input ligand: none) [µM] | apparent KD of K4 kissing-loop reporter [1] [µM] | apparent KD of K4 kissing-loop reporter [2] [µM]
CACCGGACGAAAGAUACCAGUUACUAUAUUAGGGUGCCUUGGCUAGUGAUGUUAGAGAGUAACCCUUGGCAGCUUUGGUACUUAU [theeternabot_exclusion_KL_Theo_B_21] | 0.38 | 0.367 | 0.39 | 0.319 | 0.335
CACGAUGAAUUCUCUAGGAGUGAUGUUUUUCGAGGACCGGUACGGCCGCCACUCGGACGACGAGCGUGGUAGCGGCGUGAAGACU [zamullin] | 0.365 | 0.276 | 0.625 | 0.459 | 0.452
CACGGUUAUACGGCCGCCACUGAUUGCGUUGCAGUGAUGUUGCACGCGUCCGACUACACCUCAUUCAGGACCGGGUAGACAUGCA [theeternabot_exclusion_KL_Trp_B_11] | 0.238 | 0.163 | 0.23 | 0.208 | 0.246
CACUCGGUAUCAGAUACCAGACUAACGAUACCGAGUGUAUCGGGUAGUGAUGUUACCAUAGUCCCUUGGCAGCUGAUAUACCAUA [Theo B SS t9] | 0.249 | 0.242 | 0.265 | 0.269 | 0.223
CAGAAGCAUUCGGCCGCCACUCCAGUGAUGUUGGAGCGGGAGGGCCUUAAACCUCGAGGCUGCUGGAGGACCGGGAAUGUUGAGG [Beerso] | 0.166 | 0.164 | 0.168 | 0.173 | 0.269
CAGAUCACAGAGUGAUGUUCUGUGUCCGAAGGAGCGCGCUUCGGCGCAGGUAGGUCGCGGAUACAGUUGACGUACCAUCUAGACA [Arg A Ex t3c] | 0.446 | 0.383 | 0.583 | 0.485 | 0.507
CAUACGCAUGGAGGAUAUGAGAUUUCUCAUAUUAUUUAAUAUUCUCAGUGAUGUUGAGAAUUUAACUCAGAAGGCCAUGUGUAUG [Ex FMN B 5] | 0.316 | 0.149 | 0.156 | 0.154 | 0.152
CAUACGCAUGGAGGAUAUGAGAUUUUUCAUAUUACUUUUUAUUCUCAGUGAUGUUGGGAUUUGUAAUCAGAAGGCCAUGUGUAUG [#10 K4 FMN B Exclusion] | 0.174 | 0.0932 | 0.0998 | 0.11 | 0.0981
CAUACGCAUGGAGGAUAUGGGAUUUCUCAUAUUAACCUGUAUCAGGUAUCUCAGUGAUGUUGAGACUCAGAAGGCCAUGUGUAUG [Ex FMN B 25] | 0.494 | 0.303 | 0.364 | 0.354 | 0.344
CAUACUAUCAGAAGGAGCGUGGAAUAUUCAUCUGUAUCUAAUACGAGUGAUGUUCGUAAUUCACAGGUAGGUCGCUGAUUAAUAC [whbob_Ex_Arginine_B_2th159] | 0.265 | 0.272 | 0.267 | 0.269 | 0.219
CAUAGGAAACUAUGUUUCUCUCUGACUGAAGGAGCGCGUGAAAACGCAGGUAGGUCGCAGAAUUUAACAGAGAGUGAUGUUCUCA [Ex Arginine A K4 12] | 0.457 | 0.396 | 0.567 | 0.633 | 0.43
CAUAUACAAGUGAUGUUUGUACUAACCGAAGGAGCGUCGUUGAAGACAGGUAGGUCGCGGUUUAAGUUAGAUUAUAUAAUUCCAC [JR_Nu_SSArginiA_Sub027] | 0.705 | 0.535 | 0.892 | 0.715 | 0.509
CCAAUCUGUUACGAUACCAGUCAAAGAUAUUUGAUCAAUACCCUCACCGAGUGAUGUUCGGACCCUUGGCAGCGUCUGGGAUAGG [ceevmullin] | 0.228 | 0.267 | 0.266 | 0.281 | 0.193
CCACCAAGCACGGCCGCCACUAAAUCUGCAAGUAACCUAAAGUGAUGUUUUAUCUUGCGUCAGACUAGGACCGGGUGUCAAGUUA [theeternabot_sameState_KL_Trp_B_45] | 0.42 | 0.408 | 0.387 | 0.704 | 0.755
CCAGGAUGAUGAGGAUGAUGAAUUACUGAAGGAGCGCAUAUGGUUGCAGGUAGGUCGCGGUGAACAAGUAUAGUGAUGUUAUGCC [SSArgA.W] | 0.575 | 0.615 | 0.795 | 1.16 | 0.545
CCAGGUUGCCGCAACGACCUGGAUUUUAGGGAGGAUAUCCAGAGCAGGAGAAGGCCCAGUGAUGUUGGGCCUGUGGAGCCCAUAU [Ararensoza] | 0.274 | 0.149 | 0.176 | 0.12 | 0.151
